According to patent publication US8551717B2, “Method for determining sumoylation” (Medizinische Hochschule Hannover, priority 2008, dated 2013):

B1: GST-HSF2BP: HSF2BP fused to GST tag (protein, UniProt O75031 1-334, looked up)
Heat shock factor 2-binding …: MGEAGAAEEACRHMGTKEEFVKVRKKDLERLTTEVMQIRDFLPRILNGEVLESFQKLKIVEKNLERKEQELEQLKMDCEHFKARLETVQADNIREKKEKLALRQQLNEAKQQLLQQAEYCTEMGAAACTLLWGVSSSEEVVKAILGGDKALKFFSITGQTMESFVKSLDGDVQELDSDESQFVFALAGIVTNVAAIACGREFLVNSSRVLLDTILQLLGDLKPGQCTKLKVLMLMSLYNVSINLKGLKYISESPGFIPLLWWLLSDPDAEVCLHVLRLVQSVVLEPEVFSKSASEFRSSLPLQRILAMSKSRNPRLQTAAQELLEDLRTLEHNV
modifications: GST tag
B2: HA-MK5: MK5 fused to HA tag (protein)
chain: MSEESDMDKAIKETSILEEYSINWTQKLGAGISGPVRVCVKKSTQERFALKILLDRPKARNEVRLHMMCATHPNIVQIIEVFANSVQFPHESSPRARLLIVMEMMEGGELFHRISQHRHFTEKQASQVTKQIALALRHCHLLNIAHRDLKPENLLFKDNSLDAPVKLCDFGFAKIDQGDLMTPQFTPYYVAPQVLEAQRRHQKEKSGIIPTSPTPYTYNKSCDLWSLGVIIYVMLCGYPPFYSKHHSRTIPKDMRRKIMTGSFEFPEEEWSQISEMAKDVVRKLLKVKPEERLTIEGVLDHPWLNSTEALDNVLPSAQLMMDKAVVAGIQQAHAEQLANMRIQDLKVSLKPLHSVNNPILRKRKLLGTKPKDSVYIHDHENGAEDSNVALEKLRDVIAQCILPQAGKGENEDEKLNEVMQEAWKYNRECKLLRDTLQSFSWNGRGFTDKVDRLKLAEIVKQVIEEQTTSHESQ
modifications: left off: small tags and cut ends
notes: MK5 fused to HA tag

What was measured:
Type in all cases: cell-based
U-HSF2BP = target: T1, U-HSF2BP (Homo sapiens, UniProt O75031+P63279); assay: Trans-SUMOylation by U-HSF2BP; set-up: key: (++), strong TransSUMOylation; (+), TransSUMOylation; (+/−) weak TransSUMOylation; (−) no detectable TransSUMOylation; conditions: protein 2 construct coexpressed with U-HSF2BP and EGFP-SUMO1 in HEK293; western blot; Table 2
T1 construct: expressed in transfected cells; host or cells: HEK293
Description: (§1) To identify new SUMOylation substrates and to study the function of SUMOylation the Ubc9/substrate dimerisation-dependent SUMOylation system (USDDS) was developed which consists of fusions of the SUMOylation substrate and of the SUMO-conjugating enzyme Ubc9 to the chemically activatable heterodimerisation domains FKBP and FRB, respectively, as shown in FIG. 2. When the substrate protein fused to FKBP is coexpressed with Ubc9-FRB, treatment of HEK293 cells with the rapamycin-related dimerizer AP21967 induces SUMOylation of the substrate protein fused to FKBP at its specific SUMOylation site. […] Dependent on an EcoRl site in the coding sequence, seven C-terminal amino acids of the human STAT1a in the STAT1-FKBP/FRB fusion proteins are missing. For the SUMOylation analysis HEK293 (human embryonic kidney cells) cells have been used. HEK293 cells were cultured in Dulbecco's modified Eagle's medium with high glucose, complemented with 10% fetal calf serum, 2 mM L-glutamine, 100 U/ml penicillin and […] streptomycin. […]
(§2) As shown above, the SUMOylation of a protein of interest can be induced by the heterodimerisation with a binding protein fused to Ubc9. […] Therefore the protein pairs were coexpressed with EGFP-SUMO1 in HEK293 cells and after 24h the transfectants were lysed and the protein extracts were analyzed in western blots. […]

U-HDGF = target: T2, U-HDGF (Homo sapiens, UniProt P51858+P63279); assay: Trans-SUMOylation by U-HDGF; set-up: key: (++), strong TransSUMOylation; (+), TransSUMOylation; (+/−) weak TransSUMOylation; (−) no detectable TransSUMOylation; conditions: protein 2 construct coexpressed with U-HDGF and EGFP-SUMO1 in HEK293; western blot; Table 2
T2 construct: Ubc9 (fusion partner); expressed in transfected cells; host or cells: HEK293
Description: as §1, §2

JUN-U = target: T3, JUN-U (Homo sapiens, UniProt P05412+P63279); assay: Trans-SUMOylation by JUN-U; conditions: protein 2 construct coexpressed with JUN-U and EGFP-SUMO1 in HEK293; western blot; Table 2
T3 construct: expressed in transfected cells; host or cells: HEK293

U-MK2 = target: T4, U-MK2 (Homo sapiens, UniProt P49137+P63279); assay: Trans-SUMOylation by U-MK2; conditions: protein 2 construct coexpressed with U-MK2 and EGFP-SUMO1 in HEK293; western blot; Table 2
T4 construct: expressed in transfected cells; host or cells: HEK293

MK2-U = target: T5, MK2-U (Homo sapiens, UniProt P49137+P63279); assay: Trans-SUMOylation by MK2-U; conditions: protein 2 construct coexpressed with MK2-U and EGFP-SUMO1 in HEK293; western blot; Table 2
T5 construct: expressed in transfected cells; host or cells: HEK293

U-p38α = target: T6, U-p38α (Homo sapiens, UniProt P63279+Q16539); assay: Trans-SUMOylation by U-p38α; conditions: protein 2 construct coexpressed with U-p38α and EGFP-SUMO1 in HEK293; western blot; Table 1
T6 construct: expressed in transfected cells; host or cells: HEK293

ERK2-U = target: T7, ERK2-U (Homo sapiens, UniProt P28482+P63279); assay: Trans-SUMOylation by ERK2-U; conditions: protein 2 construct coexpressed with ERK2-U and EGFP-SUMO1 in HEK293; western blot; Table 2
T7 construct: expressed in transfected cells; host or cells: HEK293

U-MK5 = target: T8, U-MK5 (Homo sapiens, UniProt P63279+Q8IW41); assay: Trans-SUMOylation by U-MK5; set-up: key: (++), strong TransSUMOylation; (+), TransSUMOylation; (+/−) weak TransSUMOylation; (−) no detectable TransSUMOylation; conditions: protein 2 construct coexpressed with U-MK5 and EGFP-SUMO1 in HEK293; western blot; Table 2
T8 construct: expressed in transfected cells; host or cells: HEK293
Description: as §1, §2

U-ERK2 = target: T9, U-ERK2 (Homo sapiens, UniProt P28482+P63279); assay: Trans-SUMOylation by U-ERK2; conditions: protein 2 construct coexpressed with U-ERK2 and EGFP-SUMO1 in HEK293; western blot; Table 2
T9 construct: expressed in transfected cells; host or cells: HEK293

U-CSNK2B = target: T10, U-CSNK2B (Homo sapiens, UniProt P63279+P67870); assay: Trans-SUMOylation by U-CSNK2B; set-up: key: (++), strong TransSUMOylation; (+), TransSUMOylation; (+/−) weak TransSUMOylation; (−) no detectable TransSUMOylation; conditions: protein 2 construct coexpressed with U-CSNK2B and EGFP-SUMO1 in HEK293; western blot; Table 2
T10 construct: expressed in transfected cells; host or cells: HEK293
Description: as §1, §2

T8 sequence (P63279+Q8IW41 fused): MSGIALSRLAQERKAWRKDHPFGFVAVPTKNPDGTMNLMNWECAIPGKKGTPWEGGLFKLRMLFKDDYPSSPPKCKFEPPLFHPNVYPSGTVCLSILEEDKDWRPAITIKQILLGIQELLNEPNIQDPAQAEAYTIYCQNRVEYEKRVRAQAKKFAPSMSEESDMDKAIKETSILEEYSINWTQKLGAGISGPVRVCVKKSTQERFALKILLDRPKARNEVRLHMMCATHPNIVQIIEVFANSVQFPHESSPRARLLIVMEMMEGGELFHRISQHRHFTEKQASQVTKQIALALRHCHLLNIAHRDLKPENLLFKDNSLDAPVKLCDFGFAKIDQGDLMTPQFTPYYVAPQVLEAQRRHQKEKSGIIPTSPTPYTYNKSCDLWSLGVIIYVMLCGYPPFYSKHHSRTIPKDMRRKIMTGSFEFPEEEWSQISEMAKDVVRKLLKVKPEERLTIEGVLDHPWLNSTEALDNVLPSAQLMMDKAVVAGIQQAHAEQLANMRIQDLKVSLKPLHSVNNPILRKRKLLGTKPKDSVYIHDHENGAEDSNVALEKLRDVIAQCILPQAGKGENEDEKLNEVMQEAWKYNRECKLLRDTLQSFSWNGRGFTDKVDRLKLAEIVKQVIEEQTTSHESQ
T9 sequence (P63279+P28482 fused): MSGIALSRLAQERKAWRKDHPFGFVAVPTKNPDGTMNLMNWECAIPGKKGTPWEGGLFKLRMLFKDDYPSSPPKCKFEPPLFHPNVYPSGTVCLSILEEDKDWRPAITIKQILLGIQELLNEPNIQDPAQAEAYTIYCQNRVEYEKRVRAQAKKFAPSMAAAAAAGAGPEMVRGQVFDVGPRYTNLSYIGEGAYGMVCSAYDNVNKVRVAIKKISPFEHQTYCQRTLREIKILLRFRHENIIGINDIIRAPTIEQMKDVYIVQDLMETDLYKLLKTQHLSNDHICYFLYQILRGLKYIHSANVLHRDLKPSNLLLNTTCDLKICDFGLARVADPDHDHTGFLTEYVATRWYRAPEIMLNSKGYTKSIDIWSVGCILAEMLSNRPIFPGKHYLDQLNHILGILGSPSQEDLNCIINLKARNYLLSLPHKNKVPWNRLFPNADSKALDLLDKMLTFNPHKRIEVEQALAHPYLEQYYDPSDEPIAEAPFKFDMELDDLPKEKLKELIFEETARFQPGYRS
T1 sequence (P63279+O75031 fused): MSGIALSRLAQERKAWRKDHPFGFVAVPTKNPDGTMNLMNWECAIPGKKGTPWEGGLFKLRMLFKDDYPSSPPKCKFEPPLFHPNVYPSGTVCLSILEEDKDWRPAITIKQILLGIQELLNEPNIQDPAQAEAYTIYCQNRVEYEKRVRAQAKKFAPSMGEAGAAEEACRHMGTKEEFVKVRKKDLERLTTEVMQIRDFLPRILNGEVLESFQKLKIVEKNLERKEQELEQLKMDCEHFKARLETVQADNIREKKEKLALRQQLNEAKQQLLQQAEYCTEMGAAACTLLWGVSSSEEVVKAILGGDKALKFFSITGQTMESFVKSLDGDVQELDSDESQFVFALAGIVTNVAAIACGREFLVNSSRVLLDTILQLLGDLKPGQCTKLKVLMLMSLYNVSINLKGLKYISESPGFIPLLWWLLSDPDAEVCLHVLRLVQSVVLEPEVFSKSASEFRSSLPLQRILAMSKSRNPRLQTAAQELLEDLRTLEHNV
T4 sequence (P63279+P49137 fused): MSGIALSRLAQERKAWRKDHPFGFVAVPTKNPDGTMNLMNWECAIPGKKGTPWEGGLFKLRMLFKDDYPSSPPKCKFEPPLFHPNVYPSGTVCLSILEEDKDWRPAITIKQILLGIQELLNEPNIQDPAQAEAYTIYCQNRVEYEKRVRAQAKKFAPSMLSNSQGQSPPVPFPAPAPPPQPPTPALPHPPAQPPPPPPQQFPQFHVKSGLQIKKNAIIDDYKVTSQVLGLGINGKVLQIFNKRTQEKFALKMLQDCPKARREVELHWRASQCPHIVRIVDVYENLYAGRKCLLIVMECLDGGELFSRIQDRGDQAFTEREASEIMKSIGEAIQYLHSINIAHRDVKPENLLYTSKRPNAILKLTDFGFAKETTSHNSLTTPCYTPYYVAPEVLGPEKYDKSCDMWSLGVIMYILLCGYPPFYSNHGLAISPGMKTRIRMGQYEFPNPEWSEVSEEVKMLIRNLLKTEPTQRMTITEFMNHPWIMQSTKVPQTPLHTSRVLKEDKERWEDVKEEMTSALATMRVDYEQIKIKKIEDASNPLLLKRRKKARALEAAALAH
T2 sequence (P63279+P51858 fused): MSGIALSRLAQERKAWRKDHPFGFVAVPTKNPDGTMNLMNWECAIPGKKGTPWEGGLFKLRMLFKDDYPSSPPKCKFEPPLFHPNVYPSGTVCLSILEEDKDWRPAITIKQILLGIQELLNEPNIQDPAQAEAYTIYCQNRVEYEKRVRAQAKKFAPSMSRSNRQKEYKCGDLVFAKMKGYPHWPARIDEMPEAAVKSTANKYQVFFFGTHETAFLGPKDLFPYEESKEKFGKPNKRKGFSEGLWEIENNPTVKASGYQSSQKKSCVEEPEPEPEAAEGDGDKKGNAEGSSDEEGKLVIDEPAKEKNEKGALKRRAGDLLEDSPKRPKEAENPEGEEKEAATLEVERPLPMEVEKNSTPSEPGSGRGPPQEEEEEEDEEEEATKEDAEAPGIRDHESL
T10 sequence (P63279+P67870 fused): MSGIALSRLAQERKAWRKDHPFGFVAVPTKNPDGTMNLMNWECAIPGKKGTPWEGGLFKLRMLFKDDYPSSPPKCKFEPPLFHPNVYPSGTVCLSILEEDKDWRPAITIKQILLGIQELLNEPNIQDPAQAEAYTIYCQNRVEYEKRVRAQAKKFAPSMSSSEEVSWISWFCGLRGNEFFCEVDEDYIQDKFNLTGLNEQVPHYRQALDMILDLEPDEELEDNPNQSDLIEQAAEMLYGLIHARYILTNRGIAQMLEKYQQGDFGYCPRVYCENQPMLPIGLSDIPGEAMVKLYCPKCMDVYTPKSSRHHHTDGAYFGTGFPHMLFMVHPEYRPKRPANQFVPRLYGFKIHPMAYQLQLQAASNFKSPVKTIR
T3 sequence (P05412+P63279 fused): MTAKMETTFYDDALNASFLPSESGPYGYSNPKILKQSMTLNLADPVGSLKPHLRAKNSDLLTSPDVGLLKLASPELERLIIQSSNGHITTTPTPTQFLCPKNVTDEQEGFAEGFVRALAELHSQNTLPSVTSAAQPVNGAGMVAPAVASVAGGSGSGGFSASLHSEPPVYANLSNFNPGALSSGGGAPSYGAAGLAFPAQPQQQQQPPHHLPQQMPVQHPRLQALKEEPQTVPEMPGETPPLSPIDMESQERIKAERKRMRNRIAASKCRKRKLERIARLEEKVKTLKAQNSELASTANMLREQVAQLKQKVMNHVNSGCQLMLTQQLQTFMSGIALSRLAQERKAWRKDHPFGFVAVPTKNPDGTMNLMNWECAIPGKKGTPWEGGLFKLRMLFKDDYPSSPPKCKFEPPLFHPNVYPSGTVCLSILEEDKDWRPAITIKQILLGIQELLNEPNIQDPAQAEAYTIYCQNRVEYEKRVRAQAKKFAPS
T7 sequence (P28482+P63279 fused): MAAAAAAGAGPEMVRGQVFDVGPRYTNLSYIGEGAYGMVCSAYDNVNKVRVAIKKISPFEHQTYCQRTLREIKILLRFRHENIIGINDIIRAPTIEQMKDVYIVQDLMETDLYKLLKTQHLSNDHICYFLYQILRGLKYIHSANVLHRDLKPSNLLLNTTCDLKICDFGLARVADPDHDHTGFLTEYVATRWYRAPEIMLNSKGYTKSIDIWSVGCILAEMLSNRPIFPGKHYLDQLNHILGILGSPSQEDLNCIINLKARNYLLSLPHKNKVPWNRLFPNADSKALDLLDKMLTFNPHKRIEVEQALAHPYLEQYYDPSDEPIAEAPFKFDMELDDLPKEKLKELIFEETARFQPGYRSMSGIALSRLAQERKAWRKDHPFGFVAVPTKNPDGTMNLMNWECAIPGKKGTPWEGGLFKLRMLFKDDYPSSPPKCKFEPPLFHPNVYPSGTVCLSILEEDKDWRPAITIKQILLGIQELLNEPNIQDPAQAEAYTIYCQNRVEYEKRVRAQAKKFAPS
T6 sequence (P63279+Q16539 fused): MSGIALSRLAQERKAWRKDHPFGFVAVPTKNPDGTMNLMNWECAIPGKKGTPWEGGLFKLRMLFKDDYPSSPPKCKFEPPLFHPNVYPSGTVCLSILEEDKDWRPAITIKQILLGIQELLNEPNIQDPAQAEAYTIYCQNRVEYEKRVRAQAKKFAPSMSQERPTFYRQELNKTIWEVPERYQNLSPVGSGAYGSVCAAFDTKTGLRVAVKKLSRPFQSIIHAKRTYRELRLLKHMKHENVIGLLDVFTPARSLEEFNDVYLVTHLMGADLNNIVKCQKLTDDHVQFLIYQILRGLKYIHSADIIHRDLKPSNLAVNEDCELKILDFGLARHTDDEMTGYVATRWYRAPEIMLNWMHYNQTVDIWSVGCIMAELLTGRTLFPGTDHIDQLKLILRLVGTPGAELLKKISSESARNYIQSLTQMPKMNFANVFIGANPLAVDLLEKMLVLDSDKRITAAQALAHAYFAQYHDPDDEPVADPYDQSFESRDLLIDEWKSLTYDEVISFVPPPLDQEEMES

Molecule | Trans-SUMOylation (U-HSF2BP) | Trans-SUMOylation (U-HDGF) | Trans-SUMOylation (JUN-U) | Trans-SUMOylation (U-MK2) | Trans-SUMOylation (MK2-U) | Trans-SUMOylation (U-p38α) | Trans-SUMOylation (ERK2-U) | Trans-SUMOylation (U-MK5) | Trans-SUMOylation (U-ERK2) | Trans-SUMOylation (U-CSNK2B)
B1 | + | − |  |  |  |  |  |  |  | 
B2 |  |  | − | − | − | + | (+/−) | (+/−) | − | −
